Target: T1, ZDHHC17 (Homo sapiens, UniProt Q8IUH5)
T1 construct: purified ZDHHC17 (50 ng) with recombinant MAP2K4; with MAP2K4
Test: ex vivo kinase assay of ZDHHC17-activated MAP2K4 with JNK2 substrate (western blot); supported by co-IP disruption in U118MG cells and ZDHHC17 mutants; no direct binding measurement
Type: biochemical
Details: not given

T1 sequence (Q8IUH5 whole entry): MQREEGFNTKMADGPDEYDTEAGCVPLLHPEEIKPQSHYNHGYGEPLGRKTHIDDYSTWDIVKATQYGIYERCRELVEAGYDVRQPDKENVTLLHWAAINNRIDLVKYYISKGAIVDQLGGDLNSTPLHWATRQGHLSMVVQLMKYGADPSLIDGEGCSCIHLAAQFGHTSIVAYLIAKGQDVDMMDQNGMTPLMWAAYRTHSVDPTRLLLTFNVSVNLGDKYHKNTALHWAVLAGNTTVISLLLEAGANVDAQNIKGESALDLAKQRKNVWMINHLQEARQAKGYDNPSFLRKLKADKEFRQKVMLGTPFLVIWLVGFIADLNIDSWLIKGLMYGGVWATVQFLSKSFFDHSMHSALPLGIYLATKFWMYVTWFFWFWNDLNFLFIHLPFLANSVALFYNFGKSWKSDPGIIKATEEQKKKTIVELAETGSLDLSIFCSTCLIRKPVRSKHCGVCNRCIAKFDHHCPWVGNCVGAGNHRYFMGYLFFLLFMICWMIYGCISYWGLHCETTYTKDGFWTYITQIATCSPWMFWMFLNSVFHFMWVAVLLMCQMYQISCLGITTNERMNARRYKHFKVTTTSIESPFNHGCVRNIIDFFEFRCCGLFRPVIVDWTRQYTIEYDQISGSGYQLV
T1 sequence (P45985 2-399 partner): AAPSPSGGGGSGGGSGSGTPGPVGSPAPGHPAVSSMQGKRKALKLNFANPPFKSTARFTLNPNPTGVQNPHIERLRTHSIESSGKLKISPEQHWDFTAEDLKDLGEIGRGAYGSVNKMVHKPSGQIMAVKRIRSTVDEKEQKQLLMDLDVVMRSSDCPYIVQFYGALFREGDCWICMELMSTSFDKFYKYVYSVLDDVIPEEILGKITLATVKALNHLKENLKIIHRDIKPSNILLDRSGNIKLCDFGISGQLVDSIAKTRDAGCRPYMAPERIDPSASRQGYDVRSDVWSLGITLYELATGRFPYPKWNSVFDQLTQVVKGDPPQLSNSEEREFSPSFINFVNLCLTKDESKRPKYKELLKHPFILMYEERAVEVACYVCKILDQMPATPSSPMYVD

IC50 [nM] | Compound
800 | O=c1c(-c2ccc(O)cc2)coc2cc(O)cc(O)c12 [genistein]

Target: Myc-tagged ZDHHC17 ANK (1-7)
Test: co-immunoprecipitation, quantified immunoblot
Details: HEK293 cell lysates; parent: est. 1.0; read off a plot

Compound | ratio to parent
FLAG-tagged MAP2K4 protein kinase c (PKc) domain fragment E221G | 0.85
FLAG-tagged MAP2K4 protein kinase c (PKc) domain fragment S80G | 0.83
FLAG-tagged MAP2K4 protein kinase c (PKc) domain fragment W95G | 0.47

The remaining lines, values ahead:

ratio to parent | Compound
0.5 | FLAG-tagged MAP2K4 protein kinase c (PKc) domain fragment M153G
0.35 | FLAG-tagged MAP2K4 protein kinase c (PKc) domain fragment N222G
0.73 | FLAG-tagged MAP2K4 protein kinase c (PKc) domain fragment R154G
